What all share (assay): SPR (Biacore T100): antibody captured on Protein A, GST-FND1 as analyte
Assay [1] deals with T1, Human recombinant AXL-FND1 (GST-FND1), from pET-41b(+) (human, UniProt P30530 225-331).
T1 construct: Expressed in E. coli, purified on Glutathione Sepharose; analyte in all Biacore measurements; GST put first by the usual layout of pET-41; not shown: GST-tag of vector pET-41b(+) (Novagen)
T1 sequence (looked up): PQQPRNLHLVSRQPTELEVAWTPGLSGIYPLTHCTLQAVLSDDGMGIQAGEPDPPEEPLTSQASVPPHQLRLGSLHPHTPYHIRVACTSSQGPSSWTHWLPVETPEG
The method, then:
(§1) Kinetic analyses of antigen-antibody reactions of humanized AXL antibodies were carried out using Biacore T100 (BIACORE). rec-Protein A (Zymed) (hereinafter, Protein A) was immobilized onto a sensor chip, various antibodies were bound to it, then an antigen as the analyte was flushed to measure the antibody-antigen interaction. Human recombinant AXL-FND1 (prepared in 2-2; hereinafter referred to as GST-FND1) prepared at various concentrations was used as the antigen. From the sensorgrams obtained through the measurements, kinetic parameters, namely binding rate constant kₐ (1/Ms) and dissociation rate constant kd (1/s), were calculated, and Kd (M) was calculated based on these values. Biacore T100 Evaluation Software (BIACORE) was used to calculate each of the parameters.
(§2) The sensor chips were produced by immobilizing approximately 3000 RU of Protein A onto CM5 (BIACORE) by amine coupling. Using the produced sensor chip, kinetic analyses were carried out on the interaction between the Protein A-bound antibodies and GST-FND1. HBS-EP+ was used as the running buffer, and the flow rate was set to 30 μL/min. Each antibody was prepared at 1 μg/mL using the running buffer, and was subjected to binding with Protein A for two minutes. GST-FND1 as the analyte was prepared at 0.5 and 2.0 μg/mL using HBS-EP+. […]

For assay [2], the target named is T1, Human recombinant AXL-FND1 (GST-FND1), …. As for the experimental part: as §1, §2
The source holds these as a separate data set.

For assay [3] the target is unchanged. Put shortly: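 Antibodies (1 μg/mL) were captured for 2 min on a Protein A CM5 chip. GST-FND1 (0.5 and 2.0 μg/mL) in HBS-EP+ was flowed at 30 μL/min with 2 min association and 2 min dissociation at 25° C. ka and kd were fitted from sensorgrams and Kd was calculated from them.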
The source holds these as a separate data set.

The target is the same in assay [4]. The method, then:
as §1
The sensor chips were produced by immobilizing approximately 3000 RU of Protein A onto CM5 (BIACORE) by amine coupling. Using the produced sensor chip, kinetic analyses were carried out on the interaction between the Protein A-bound antibodies and GST-FND1. HBS-EP+ was used as the running buffer, and the flow rate was set to 30 μL/min. Each antibody was prepared at 1 μg/mL using the running buffer, and was subjected to binding with Protein A for two minutes. GST-FND1 as the analyte was prepared at 0.5 and 2.0 μg/mL using HBS-EP+. Measurements were carried out by first binding the various humanized AXL antibodies, chimeric AXL antibodies, or mouse AXL antibodies of interest to Protein A, then applying an analyte solution to them for a two-minute interaction, and then switching to HBS-EP+ (BIACORE) for a two-minute measurement of the dissociation phase. After completion of measurement of the dissociation phase, 30 μL of 10 mM glycine-HCl (pH 2.0) was used for washing to regenerate the sensor chip. Such binding, dissociation, and regeneration were defined as one cycle of analysis. All experiments were performed at 25° C.
Affinity measurements on the produced variants were carried out by the method of Example 2.
This is another data set of the same source.

Positions count from the first letter of the chain named. Read-outs that look alike come from different tables or passages of the source.

B1: chH/L0 (antibody, V domains shown, not shown: a dimerising Fc or GST)
VH: QVQLKQSGPGLVAPSQSLSITCTVSGLSLTSFGVDWVRQSPGKGLEWLGVIWGGGSTNYNSALKSRLSISKDNSKSQVFLKMNSLQTDDTAMYYCAGEGSKYGAWFAYWGQGTLVTVSA
VL: DVVMTQSPLSLPVTLGQPASISCRSSQNIVHTNGNTYLEWYQQKPGKAPELLIYKVSNRFSGVPDRFSGSGSGTDFTLKISRVEAEDVGVYYCFQGSHIPFTFGQGTKLEIKR
notes: Chimeric H chain with humanized L chain
Take B1: the dissociation constant (Kd) – broadly, a measure of binding affinity in units of concentration – in assay [1] worked out at 1.59 nM.

B2: H0/L0 (antibody, human IgG1, kappa, V domains shown)
VH: QVTLKESGPVLVKPTETLTLTCTVSGFSLSSFGVDWVRQAPGKGLEWMGVIWGGGSTNYNSALKSRLTISKDTSKSQVVLTMTNMDPVDTATYYCAGEGSKYGAWFAYWGQGTLVTVSS
VL: B1 VL
notes: Humanized Ax225; IgG1 constant region without G446 and K447 (EU), natural human kappa
Turning to B2, in assay [2], the Kd worked out at 4.44 nM.

B3: H49/L1 (antibody, human IgG1, kappa)
heavy: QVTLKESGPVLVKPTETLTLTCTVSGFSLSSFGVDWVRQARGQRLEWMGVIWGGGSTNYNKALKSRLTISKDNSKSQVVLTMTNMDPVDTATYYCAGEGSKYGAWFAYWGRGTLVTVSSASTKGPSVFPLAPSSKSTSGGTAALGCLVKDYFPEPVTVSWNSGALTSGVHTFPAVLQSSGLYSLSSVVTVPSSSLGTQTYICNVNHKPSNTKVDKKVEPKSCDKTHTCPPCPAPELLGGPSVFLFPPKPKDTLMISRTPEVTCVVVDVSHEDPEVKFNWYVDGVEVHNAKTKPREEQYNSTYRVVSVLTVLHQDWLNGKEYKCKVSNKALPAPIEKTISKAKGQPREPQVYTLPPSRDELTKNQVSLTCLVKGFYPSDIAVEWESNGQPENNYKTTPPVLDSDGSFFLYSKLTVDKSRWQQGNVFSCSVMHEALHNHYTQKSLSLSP
light: DVVMTQSPLSLPVTLGQPASISCQSSQNIVHTNGNTYLEWYQQKPGKAPELLIYKVSNRFSGVPDRFSGSGSGTDFTLKISRVEAEDVGVYYCFQGSHIPFTFGQGTKLEIKRTVAAPSVFIFPPSDEQLKSGTASVVCLLNNFYPREAKVQWKVDNALQSGNSQESVTEQDSKDSTYSLSSTLTLSKADYEKHKVYACEVTHQGLSSPVTKSFNRGEC
With B3, the Kd in assay [3] was 1.91 nM.

B4: H50/L11 (antibody, human IgG1, kappa)
heavy: not shown
light: B3 light with L109V, K112E
For B4, the equilibrium dissociation constant (Kd) in assay [3] came to 1.82 nM.

B5: H49/L0 (antibody, human IgG1, kappa)
heavy: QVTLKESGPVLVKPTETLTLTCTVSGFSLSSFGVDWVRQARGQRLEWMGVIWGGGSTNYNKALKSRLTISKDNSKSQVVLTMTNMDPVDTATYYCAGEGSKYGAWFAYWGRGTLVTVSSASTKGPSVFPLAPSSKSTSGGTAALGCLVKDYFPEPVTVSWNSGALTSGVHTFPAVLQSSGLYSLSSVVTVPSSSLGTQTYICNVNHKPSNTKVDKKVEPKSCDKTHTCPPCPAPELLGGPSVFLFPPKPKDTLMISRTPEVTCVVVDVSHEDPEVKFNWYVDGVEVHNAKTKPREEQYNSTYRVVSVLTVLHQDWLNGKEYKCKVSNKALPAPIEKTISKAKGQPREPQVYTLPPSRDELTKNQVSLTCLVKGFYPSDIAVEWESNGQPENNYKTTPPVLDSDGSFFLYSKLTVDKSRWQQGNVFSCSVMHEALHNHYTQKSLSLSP
light: B3 light with Q24R
For the molecule B5, the Kd in assay [3] is 2.06 nM.

B6: H48/L31 (antibody, human IgG1, kappa)
heavy: not shown
light: B3 light with Q24R, Q27R, E50K
For the molecule B6, in assay [3], the Kd worked out at 1.98 nM.

B7: H49/L31 (antibody, human IgG1, kappa)
heavy: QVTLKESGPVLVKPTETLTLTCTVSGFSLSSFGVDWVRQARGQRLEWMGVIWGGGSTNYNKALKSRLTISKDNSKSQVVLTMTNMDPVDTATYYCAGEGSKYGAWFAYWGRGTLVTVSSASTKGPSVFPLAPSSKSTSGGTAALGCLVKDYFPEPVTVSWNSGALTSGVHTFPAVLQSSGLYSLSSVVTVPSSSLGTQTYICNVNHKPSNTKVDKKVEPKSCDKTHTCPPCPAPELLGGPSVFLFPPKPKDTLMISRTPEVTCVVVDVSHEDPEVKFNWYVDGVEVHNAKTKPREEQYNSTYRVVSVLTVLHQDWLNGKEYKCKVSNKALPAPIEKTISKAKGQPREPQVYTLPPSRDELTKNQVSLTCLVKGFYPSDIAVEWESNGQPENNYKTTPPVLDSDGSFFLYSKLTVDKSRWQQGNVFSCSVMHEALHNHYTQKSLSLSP
light: B3 light with Q24R, Q27R, E50K
Regarding B7, the equilibrium dissociation constant (Kd) in assay [3] came to 1.94 nM.

B8: H48/L34 (antibody, human IgG1, kappa)
heavy: not shown
light: B3 light with Q17R, Q24R, Q27R, E50K
On to B8, for which the equilibrium dissociation constant (Kd) in assay [3] is 2.27 nM.

B9: H50/L0 (antibody, human IgG1, kappa)
heavy: not shown
light: B3 light with Q24R
As to B9, the Kd in assay [3] was 1.89 nM.

B10: H48/L35 (antibody, human IgG1, kappa)
heavy: not shown
light: B3 light with Q24R, Q27R, E50K, Q105R
On to B10, for which the equilibrium dissociation constant (Kd) in assay [3] was 2.07 nM.

B11: H49/L11 (antibody, human IgG1, kappa)
heavy: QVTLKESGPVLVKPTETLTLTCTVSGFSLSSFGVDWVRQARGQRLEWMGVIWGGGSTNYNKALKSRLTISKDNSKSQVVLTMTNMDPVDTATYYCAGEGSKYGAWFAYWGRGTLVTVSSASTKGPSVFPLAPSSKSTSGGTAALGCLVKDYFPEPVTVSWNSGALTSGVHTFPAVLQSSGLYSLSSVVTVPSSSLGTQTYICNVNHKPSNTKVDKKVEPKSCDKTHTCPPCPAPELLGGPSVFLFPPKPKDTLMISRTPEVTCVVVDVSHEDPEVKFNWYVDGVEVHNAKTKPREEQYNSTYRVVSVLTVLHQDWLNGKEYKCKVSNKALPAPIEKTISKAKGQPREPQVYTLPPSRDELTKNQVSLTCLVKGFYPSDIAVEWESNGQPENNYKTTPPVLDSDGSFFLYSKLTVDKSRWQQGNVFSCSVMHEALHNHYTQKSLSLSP
light: B3 light with L109V, K112E
Regarding B11, in assay [3], the equilibrium dissociation constant (Kd) turned out to be 1.92 nM.

B12: H36/L36 (antibody, human IgG1, kappa, V domains shown)
VH: B2 VH with P41R, K43Q, G44R, T73N
VL: B1 VL with G34A
As for B12, the equilibrium dissociation constant (Kd) in assay [4] came out at 2.59 nM.

B13: H48/L28 (antibody, human IgG1, kappa)
heavy: not shown
light: B3 light with Q24R, E50K
For B13, the dissociation constant Kd in assay [3] was determined as 2.07 nM.

B14: H48/L37 (antibody, human IgG1, kappa)
heavy: not shown
light: B3 light with Q17R, Q24R, Q27R, E50K, Q105R
As to B14, in assay [3], the dissociation constant Kd was determined as 2.19 nM.

B15: H9/L0 (antibody, human IgG1, kappa)
heavy: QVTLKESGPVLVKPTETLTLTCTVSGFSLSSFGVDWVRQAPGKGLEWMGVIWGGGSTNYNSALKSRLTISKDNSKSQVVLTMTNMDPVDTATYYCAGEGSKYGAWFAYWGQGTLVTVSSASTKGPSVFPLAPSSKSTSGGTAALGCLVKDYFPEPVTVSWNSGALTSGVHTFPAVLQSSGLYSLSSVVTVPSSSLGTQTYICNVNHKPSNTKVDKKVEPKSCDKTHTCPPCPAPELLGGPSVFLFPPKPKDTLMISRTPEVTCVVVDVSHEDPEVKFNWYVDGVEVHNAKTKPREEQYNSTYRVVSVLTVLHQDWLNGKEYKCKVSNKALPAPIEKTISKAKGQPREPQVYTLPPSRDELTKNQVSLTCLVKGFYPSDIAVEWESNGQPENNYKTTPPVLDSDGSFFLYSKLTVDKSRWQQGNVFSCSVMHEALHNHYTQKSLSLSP
light: B3 light with Q24R
notes: also called humanized Ax225 antibody (H9/L0)
Take B15: the Kd in assay [2], in assay [3] and in assay [4] was 3.58 nM in each case.

B16: H48/L11 (antibody, human IgG1, kappa)
heavy: not shown
light: B3 light with L109V, K112E
For the molecule B16, the Kd in assay [3] was found to be 2 nM.

B17: H50/L1 (antibody, human IgG1, kappa)
heavy: not shown
light: B3 light
Consider B17, for which the dissociation constant (Kd) in assay [3] was determined as 1.86 nM.

B18: H50/L27 (antibody, human IgG1, kappa)
heavy: not shown
light: B3 light with Q24R, Q27R
Take B18: the dissociation constant Kd in assay [3] was 1.95 nM.

B19: H49/L28 (antibody, human IgG1, kappa)
heavy: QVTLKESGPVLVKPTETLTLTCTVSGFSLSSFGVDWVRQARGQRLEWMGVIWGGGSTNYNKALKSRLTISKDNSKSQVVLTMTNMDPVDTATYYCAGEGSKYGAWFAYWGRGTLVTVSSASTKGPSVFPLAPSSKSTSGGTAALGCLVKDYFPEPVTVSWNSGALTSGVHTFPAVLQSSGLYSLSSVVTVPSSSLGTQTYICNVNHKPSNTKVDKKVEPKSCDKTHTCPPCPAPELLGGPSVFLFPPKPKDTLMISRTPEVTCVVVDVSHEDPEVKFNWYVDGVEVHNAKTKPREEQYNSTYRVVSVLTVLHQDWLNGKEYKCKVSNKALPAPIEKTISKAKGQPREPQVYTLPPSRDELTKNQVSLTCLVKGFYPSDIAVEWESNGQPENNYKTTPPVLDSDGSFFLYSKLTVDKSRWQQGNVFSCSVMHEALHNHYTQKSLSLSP
light: B3 light with Q24R, E50K
Consider B19, for which the Kd in assay [3] was determined as 2.11 nM.

B20: H50/L31 (antibody, human IgG1, kappa)
heavy: not shown
light: B3 light with Q24R, Q27R, E50K
On to B20, for which the equilibrium dissociation constant (Kd) in assay [3] is 1.93 nM.

B21: H6/L0 (antibody, V domains shown, not shown: a dimerising Fc or GST)
VH: B1 VH with G97R
VL: B1 VL
notes: H6 is chH with arginine for glycine at Kabat position 94
Regarding B21, the Kd in assay [1] amounted to 12.3 nM.

B22: H50/L34 (antibody, human IgG1, kappa)
heavy: not shown
light: B3 light with Q17R, Q24R, Q27R, E50K
B22: the Kd in assay [3] is 2.36 nM.

B23: H32/L21 (antibody, human IgG1, kappa, V domains shown)
VH: B2 VH with S61E, K64Q, S65D, T73N, Q111E
VL: B1 VL with R24Q, G34A, L109V, K112E
For B23, the Kd in assay [4] is 3.81 nM.

B24: H50/L37 (antibody, human IgG1, kappa)
heavy: not shown
light: B3 light with Q17R, Q24R, Q27R, E50K, Q105R
For the molecule B24, in assay [3], the Kd worked out at 2.72 nM.

B25: H49/L37 (antibody, human IgG1, kappa)
heavy: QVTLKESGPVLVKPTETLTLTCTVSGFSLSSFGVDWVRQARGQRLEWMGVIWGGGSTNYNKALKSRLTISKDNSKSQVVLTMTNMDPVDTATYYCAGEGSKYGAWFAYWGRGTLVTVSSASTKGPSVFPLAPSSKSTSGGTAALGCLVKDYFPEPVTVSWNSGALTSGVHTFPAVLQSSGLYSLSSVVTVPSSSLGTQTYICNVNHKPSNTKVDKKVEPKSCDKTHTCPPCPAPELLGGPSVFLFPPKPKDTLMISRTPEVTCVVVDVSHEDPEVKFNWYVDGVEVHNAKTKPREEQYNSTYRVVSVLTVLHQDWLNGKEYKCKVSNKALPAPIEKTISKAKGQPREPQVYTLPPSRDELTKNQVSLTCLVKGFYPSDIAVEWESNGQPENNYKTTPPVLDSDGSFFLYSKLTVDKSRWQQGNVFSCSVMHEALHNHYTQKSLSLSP
light: B3 light with Q17R, Q24R, Q27R, E50K, Q105R
On to B25, for which the Kd in assay [3] worked out at 2.43 nM.

B26: H49/L27 (antibody, human IgG1, kappa)
heavy: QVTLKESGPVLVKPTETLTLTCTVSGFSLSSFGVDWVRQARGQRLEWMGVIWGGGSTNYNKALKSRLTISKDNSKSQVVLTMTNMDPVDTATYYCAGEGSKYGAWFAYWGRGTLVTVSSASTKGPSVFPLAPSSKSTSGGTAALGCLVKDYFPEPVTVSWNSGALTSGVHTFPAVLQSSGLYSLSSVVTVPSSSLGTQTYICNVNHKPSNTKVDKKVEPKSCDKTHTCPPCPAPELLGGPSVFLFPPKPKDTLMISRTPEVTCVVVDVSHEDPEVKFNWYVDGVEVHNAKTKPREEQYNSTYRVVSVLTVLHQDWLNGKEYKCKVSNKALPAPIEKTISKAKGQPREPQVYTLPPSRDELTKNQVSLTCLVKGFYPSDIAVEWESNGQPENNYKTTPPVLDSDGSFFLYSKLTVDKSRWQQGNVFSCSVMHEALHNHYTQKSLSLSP
light: B3 light with Q24R, Q27R
Consider B26, for which, in assay [3], the dissociation constant Kd turned out to be 2.08 nM.

B27: H50/L35 (antibody, human IgG1, kappa)
heavy: not shown
light: B3 light with Q24R, Q27R, E50K, Q105R
As for B27, the Kd in assay [3] was found to be 2.24 nM.

B28: H49/L35 (antibody, human IgG1, kappa)
heavy: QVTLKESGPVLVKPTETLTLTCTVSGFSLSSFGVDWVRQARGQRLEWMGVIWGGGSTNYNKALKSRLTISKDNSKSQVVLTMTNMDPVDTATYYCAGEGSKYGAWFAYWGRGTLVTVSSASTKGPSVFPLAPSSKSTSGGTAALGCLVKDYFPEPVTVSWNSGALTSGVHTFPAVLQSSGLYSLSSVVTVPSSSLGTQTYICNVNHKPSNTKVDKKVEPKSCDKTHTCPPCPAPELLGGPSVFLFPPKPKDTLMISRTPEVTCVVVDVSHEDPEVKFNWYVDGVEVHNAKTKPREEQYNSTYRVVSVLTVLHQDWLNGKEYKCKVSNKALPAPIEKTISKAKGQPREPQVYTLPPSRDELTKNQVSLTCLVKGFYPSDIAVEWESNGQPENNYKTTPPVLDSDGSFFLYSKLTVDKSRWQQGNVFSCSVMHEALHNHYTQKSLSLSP
light: B3 light with Q24R, Q27R, E50K, Q105R
Turning to B28, in assay [3], the Kd was 2.08 nM.

B29: H50/L28 (antibody, human IgG1, kappa)
heavy: not shown
light: B3 light with Q24R, E50K
As to B29, in assay [3], the Kd was 1.97 nM.

B30: H49/L34 (antibody, human IgG1, kappa)
heavy: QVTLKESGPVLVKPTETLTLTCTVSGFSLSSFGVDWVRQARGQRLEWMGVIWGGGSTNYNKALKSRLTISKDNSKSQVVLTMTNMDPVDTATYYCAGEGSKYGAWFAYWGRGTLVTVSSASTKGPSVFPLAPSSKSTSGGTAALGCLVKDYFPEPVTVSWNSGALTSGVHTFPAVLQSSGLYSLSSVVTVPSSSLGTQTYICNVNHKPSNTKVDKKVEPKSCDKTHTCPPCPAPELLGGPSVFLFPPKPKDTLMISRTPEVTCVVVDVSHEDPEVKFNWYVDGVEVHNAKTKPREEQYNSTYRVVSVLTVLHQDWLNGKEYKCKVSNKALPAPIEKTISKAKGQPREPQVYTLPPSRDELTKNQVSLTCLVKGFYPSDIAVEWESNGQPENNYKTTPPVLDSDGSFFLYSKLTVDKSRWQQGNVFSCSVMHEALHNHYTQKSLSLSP
light: B3 light with Q17R, Q24R, Q27R, E50K
Consider B30, for which the Kd in assay [3] is 2.21 nM.

B31: H50/L10 (antibody, human IgG1, kappa)
heavy: not shown
light: B3 light with Q24R, L109V, K112E
With B31, the dissociation constant Kd in assay [3] came out at 1.9 nM.

B32: H48/L27 (antibody, human IgG1, kappa)
heavy: not shown
light: B3 light with Q24R, Q27R
In the case of B32, the Kd in assay [3] is 1.99 nM.

B33: H49/L10 (antibody, human IgG1, kappa)
heavy: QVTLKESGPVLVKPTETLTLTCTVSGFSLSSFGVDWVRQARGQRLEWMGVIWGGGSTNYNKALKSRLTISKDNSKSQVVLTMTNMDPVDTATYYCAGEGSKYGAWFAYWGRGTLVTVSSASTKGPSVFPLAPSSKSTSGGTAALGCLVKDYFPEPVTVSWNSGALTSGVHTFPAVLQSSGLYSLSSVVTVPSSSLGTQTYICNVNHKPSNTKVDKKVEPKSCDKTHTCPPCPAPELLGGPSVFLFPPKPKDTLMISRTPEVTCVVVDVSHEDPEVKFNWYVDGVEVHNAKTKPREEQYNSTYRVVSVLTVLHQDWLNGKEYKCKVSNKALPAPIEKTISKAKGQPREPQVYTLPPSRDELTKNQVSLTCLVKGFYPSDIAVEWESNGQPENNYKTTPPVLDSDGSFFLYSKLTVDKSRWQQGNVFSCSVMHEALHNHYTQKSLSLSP
light: B3 light with Q24R, L109V, K112E
B33: the dissociation constant (Kd) in assay [3] worked out at 2.05 nM.

B34: H9/L36 (antibody, human IgG1, kappa, V domains shown)
VH: B2 VH with T73N
VL: B1 VL with G34A
For B34, the Kd in assay [4] was found to be 3.6 nM.
